Substitutions are numbered along the chain they refer to.
T1: VCAM (Panvera) (UniProt P19320 25-698, limits assumed)
T1 sequence (looked up): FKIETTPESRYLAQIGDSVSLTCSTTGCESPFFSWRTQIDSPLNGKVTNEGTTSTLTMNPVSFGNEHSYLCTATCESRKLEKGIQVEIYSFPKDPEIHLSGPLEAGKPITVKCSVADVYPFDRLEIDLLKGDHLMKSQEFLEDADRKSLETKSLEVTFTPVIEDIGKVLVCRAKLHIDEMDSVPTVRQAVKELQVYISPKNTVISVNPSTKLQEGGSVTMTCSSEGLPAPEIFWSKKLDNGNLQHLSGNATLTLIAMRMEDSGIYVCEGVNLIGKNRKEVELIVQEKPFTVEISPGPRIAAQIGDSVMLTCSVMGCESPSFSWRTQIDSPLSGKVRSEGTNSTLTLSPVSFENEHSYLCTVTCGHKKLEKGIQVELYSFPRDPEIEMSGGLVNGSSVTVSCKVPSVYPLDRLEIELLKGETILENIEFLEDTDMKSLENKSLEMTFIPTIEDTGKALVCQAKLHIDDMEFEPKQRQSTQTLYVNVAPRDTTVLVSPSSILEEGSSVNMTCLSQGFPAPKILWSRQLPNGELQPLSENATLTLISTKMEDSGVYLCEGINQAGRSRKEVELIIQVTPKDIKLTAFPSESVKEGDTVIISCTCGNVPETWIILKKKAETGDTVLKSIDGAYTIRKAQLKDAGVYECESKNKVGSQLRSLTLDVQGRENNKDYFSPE

B1: anti-MAdCAM monoclonal antibody 6.34.2 (antibody, human IgG4, kappa, V domains shown)
VH: QVQLVESGGGVVQPGRSLRLSCAASGFTFSSYGMHWVRQAPGKGLEWVAVISNDGNNKYYADSVKGRFTISRDNSKNTLYLQMNSLSAEDTAVYYCARDSTAITYYYYGMDVWGQGTTVTVSS
VL: DIQMTQSPSSLSASVGDRVTITCRASQNISSYLNWFQQKPGKAPKLLIYAASGLKRGVPSRFSGSGSGTDFTLTIRTLQPDDFATYSCHQSYSLPFTFGPGTKVDIKR
notes: fully human IgG4 kappa from hybridoma; signal peptide left out; kappa chain stained positive for glycosylation
B2: modified anti-MAdCAM monoclonal antibody 6.34.2-mod (antibody, human IgG2, kappa, V domains shown)
VH: B1 VH with S87R
VL: B1 VL with N28S, F36Y, R76S, T77S, D81E, S87Y
notes: human IgG2 kappa, made in HEK 293T cells; signal peptide left out
B3: anti-MAdCAM monoclonal antibody 7.20.5 (antibody, human IgG2, kappa, V domains shown)
VH: QVQLQESGPGLVKPSETLSLTCTVSGSSISSYHWNWIRQPAGKGLEWIGRIYTSGSTNYNPSLKSRVTMSLDTSKNQFSLKLSSVTAADTAVYYCAREGVRYYYASGSYYYGLDVWGQGTTVTVSS
VL: not shown
notes: fully human IgG2 kappa from hybridoma; signal peptide left out
B4: anti-MAdCAM monoclonal antibody 6.73.2 (antibody, human IgG4, kappa, V domains shown)
VH: EVQLLESGGDLVQPGGSLRLSCAASGFTFRSYAMNWVRQAPGKGLEWVSVISGRGGTTYYADSVKGRFTISRDNSKNTLYLQMNSLRAEDAAVYYCAKIAVAGEGLYYYYGMDVWGQGTTVTVSS
VL: DIQMTQSPSSLSASVGDRVTFTCRASQNITNYLNWYQQKPGKAPKLLIYAASSLPRGVPSRFRGSGSGTDFTLTISSLQPEDFATYYCQQSYSNPPECGFGQGTTLDIKR
B5: modified anti-MAdCAM monoclonal antibody 7.26.4-mod (antibody, human IgG2, kappa, V domains shown)
VH: QVQLVQSGAEVKKPGASVKVSCEASGYTFTSYGIDWVRQAPGQGLEWMGWISVYSGNTNYAQKLQGRVTMSTDTSTSTAYMELRSLRSDDTAVYYCAREGSSSSGDYYYGMDVWGQGTTVTVSS
VL: DIVMTQTPLSLSVTPGQPASISCKSSQSLLYSDGKTYLFWYLQKPGQPPQLLIYEVSNRFSGVPDRFSGSGSGTDFTLKISRVEAEDVGVYYCMQSIQLPWTFGQGTKVEIKR
notes: human IgG2 kappa, parental heavy chain with modified kappa chain, made in HEK 293T cells; signal peptide left out
B6: modified anti-MAdCAM monoclonal antibody 6.77.1-mod (antibody, human IgG2, kappa, V domains shown)
VH: EVQLVESGGGLVKPGGSLRLSCAASGFTFSSYSMNWVRQAPGKGLEWVSSISSSSSYIYYADSVKGRFTISRDNAKNSLYLQMNSLRAEDTAVYYCARDGYSSGWSYYYYYGMDVWGQGTTVTVSS
VL: B5 VL with Y31L, F39N, Y92S, P100M, W101S, T102S, V109L
notes: as for B2
B7: anti-MAdCAM monoclonal antibody 6.77.1 (antibody, human IgG4, kappa, V domains shown)
VH: B6 VH
VL: B5 VL with K24N, Y31L, F39N, Y92S, P100M, W101C, T102S, V109L
notes: as for B1
B8: anti-MAdCAM monoclonal antibody 7.16.6 (antibody, human IgG2, kappa, V domains shown)
VH: B5 VH with E23K, D35N, L64V, S71T, T72A, E82D
VL: B5 VL with Y31H, S32T, K35T, F39Y, V90I, S96N
B9: anti-MAdCAM monoclonal antibody 6.67.1 (antibody, human IgG4, kappa, V domains shown)
VH: QVQLQESGPGLVKPSETLSLTCTVSGDSISSNYWSWIRQPAGKGLEWIGRIYTSGGTNSNPSLRGRVTILADTSKNQFSLKLSSVTAADTAVYYCARDRITIIRGLIPSFFDYWGQGTLVTVSS
VL: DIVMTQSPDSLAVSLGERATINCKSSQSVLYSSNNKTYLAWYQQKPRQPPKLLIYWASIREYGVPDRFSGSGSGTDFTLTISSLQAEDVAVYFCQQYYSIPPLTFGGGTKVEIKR
notes: as for B1
B10: modified anti-MAdCAM monoclonal antibody 6.67.1-mod (antibody, human IgG2, kappa, V domains shown)
VH: B9 VH with I69M, L70S, A71V
VL: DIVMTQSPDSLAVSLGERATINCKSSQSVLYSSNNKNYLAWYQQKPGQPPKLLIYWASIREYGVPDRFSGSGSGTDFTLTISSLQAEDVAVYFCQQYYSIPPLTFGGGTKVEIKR
notes: as for B2
B11: anti-MAdCAM monoclonal antibody 6.22.2 (antibody, human IgG4, kappa, V domains shown)
VH: QVQLVESGGGVVQPGRSLRLSCAASGHTFSSDGMHWVRQAPGKGLEWVAIIWYDGSNKYYADSVKGRFTISRDNSKNTLYLQMNSLRAEDTAVYYCARDPGYYYGMDVWGQGTTVTVSS
VL: EIVLTQSPDFQSVTPKEKVTITCRASQRIGSSLHWYQQKPDQSPKLLIKYASQSFSGVPSRFSGSGSGTNFTLTINGLEAEDAATYYCHQSGRLPLTFGGGTKVEIKR
notes: as for B1
B12: modified anti-MAdCAM monoclonal antibody 6.22.2-mod (antibody, human IgG2, kappa, V domains shown)
VH: B11 VH with H27F
VL: B11 VL with N70D, G77S
notes: as for B2
B13: anti-MAdCAM monoclonal antibody 1.7.2 (antibody, human IgG2, kappa, V domains shown)
VH: EVQLVESGGGLVKPGGSLRLSCVASGFTFTNAWMIWVRQAPGKGLEWVGRIKRKTDGGTTDYAAPVKGRFTISRDDSKNTLYLQMNSLKTEDTAVYYCTTGGVAEDYWGQGTLVTVSS
VL: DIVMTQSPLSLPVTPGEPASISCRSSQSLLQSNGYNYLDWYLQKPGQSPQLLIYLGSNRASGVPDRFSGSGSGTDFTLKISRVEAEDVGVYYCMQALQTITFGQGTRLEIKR
B14: anti-MAdCAM monoclonal antibody 1.8.2 (antibody, human IgG2, kappa, V domains shown)
VH: B13 VH with A24V
VL: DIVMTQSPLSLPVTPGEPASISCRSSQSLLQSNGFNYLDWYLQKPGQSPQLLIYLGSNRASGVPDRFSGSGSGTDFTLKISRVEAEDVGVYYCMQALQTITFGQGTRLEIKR
B15: anti-MAdCAM monoclonal antibody 6.14.2 (antibody, human IgG4, kappa, V domains shown)
VH: EVQLLESGGGLVQPGGSLRLSCAASGLTFNNSAMTWVRQAPGKGLEWVSTTSGSGGTTYYADSVKGRFTISRDSPKNTLYLQMNSLRAEDTAVYYCAARGYSYGTTPYEYWGQGTLVTVSS
VL: DIQMTQSPSSLSASVGDRVTITCRASRSISSYLNWYQQKPGKAPKVLIFFVSSLQSGVPSRFSGSGSGTDFTLTISSLQPEDFATYYCQQNYIPPITFGQGTRLEIRR

Legend:
[1] = target: T2, MAdCAM-IgG1 Fc fusion protein (human); test: MAdCAM-IgG1 Fc fusion / JY cell adhesion assay, mean IC50
T2 construct: Expressed in CHO-DHFR cells; also called MAdCAM-IgFc; soluble MAdCAM (in the sandwich ELISA)
Procedure: (§1) The cells were washed twice with RPMI 1640 media (Gibco) containing 2 mM L-glutamine (Gibco) by centrifugation (240 g), resuspending the final cell pellet at 2×10⁶ cells/mL in RPMI 1640 for Calcein AM loading. Calcein AM (Molecular Probes #C-3099) was added to the cells as a 1:200 dilution in DMSO (ca. final concentration 5 μM) and the cells protected from light during the course of the incubation (37° C. for 30 min). During this cell incubation step the antibodies to be tested, were diluted as follows: for single dose testing, the antibodies were made up to 3 μg/mL (1 μg/mL final) in 0.1 mg/mL BSA (Sigma#A3059) in PBS; for full IC₅₀ curves, the antibodies were diluted in 0.1 mg/mL BSA/PBS, with 3 μg/mL (1 μg/mL final) being the top concentration, then doubling dilutions (1:2 ratio) across the plate. The final well of the row was used for determining total binding, so 0.1 mg/ml BSA in PBS was used.
(§2) After blocking, the plate contents were flicked out and 50 μL of antibodies/controls were added to each well and the plate incubated at 37° C. for 20 min. During this time, Calcein-loaded JY cells were washed once with RPMI 1640 media containing 10% fetal bovine serum and once with 1 mg/mL BSA/PBS by centrifugation, resuspending the final cell pellet to 1×10⁶/mL in 1 mg/mL BSA/PBS. 100 μL of cells were added to each well of the U bottomed plate, the plate sealed, briefly centrifuged (1000 rpm for 2 min) and the plate then incubated at 37° C. for 45 min. At the end of this time, the plates were washed with a Skatron plate washer and fluorescence measured using a Wallac Victor² 1420 Multilabel Reader (excitation λ 485 nm, emission λ 535 nm count from top, 8 mm from bottom of plate, for 0.1 sec with normal emission aperture). For each antibody concentration, percent adhesion was expressed as a percentage of maximal fluorescence response in the absence of any antibody minus fluorescence associated with non-specific binding. The IC₅₀ value is defined as the anti-MAdCAM antibody concentration at which the adhesion response is decreased to 50% of the response in the absence of anti-MAdCAM antibody.

[2] = target: Fibronectin cell binding fragment (110 Kd, Europa Bioproducts Ltd, Cat. No. UBF4215-18) (UniProt P02751-1 722-1635); test: cell-based or functional assay
VCAM (Panvera) = target: T1, VCAM (Panvera); test: cell-based or functional assay
[3] = target: T2, MAdCAM-IgG1 Fc fusion protein; test: adhesion of calcein-loaded α4β7+ JY cells to coated MAdCAM-IgG1 Fc, blocked by antibody
Procedure: as §1
as §2, with “The IC₅₀ value is defined as the anti-MAdCAM antibody concentration at which the adhesion response is decreased to 50% of the response in the absence of anti-MAdCAM antibody.” left out

T2 sequence (chain, as listed by the source limits assumed): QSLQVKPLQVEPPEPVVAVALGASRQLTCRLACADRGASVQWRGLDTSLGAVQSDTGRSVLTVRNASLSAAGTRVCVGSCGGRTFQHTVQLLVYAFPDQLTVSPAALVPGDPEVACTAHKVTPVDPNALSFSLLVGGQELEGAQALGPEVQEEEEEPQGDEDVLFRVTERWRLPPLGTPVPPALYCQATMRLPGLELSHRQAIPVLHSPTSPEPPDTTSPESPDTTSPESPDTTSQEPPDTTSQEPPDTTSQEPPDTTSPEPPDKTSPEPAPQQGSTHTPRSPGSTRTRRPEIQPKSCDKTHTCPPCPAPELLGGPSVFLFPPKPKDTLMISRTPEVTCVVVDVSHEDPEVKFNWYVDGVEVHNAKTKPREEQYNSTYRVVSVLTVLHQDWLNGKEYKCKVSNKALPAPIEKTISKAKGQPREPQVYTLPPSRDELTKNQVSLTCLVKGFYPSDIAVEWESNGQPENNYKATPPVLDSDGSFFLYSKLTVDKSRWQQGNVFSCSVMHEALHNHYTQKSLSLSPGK
Fibronectin cell binding fragment (110 Kd, Europa Bioproducts Ltd, Cat. No. UBF4215-18), sequence (P02751 other isoform, or with tags, fused parts or gaps limits assumed): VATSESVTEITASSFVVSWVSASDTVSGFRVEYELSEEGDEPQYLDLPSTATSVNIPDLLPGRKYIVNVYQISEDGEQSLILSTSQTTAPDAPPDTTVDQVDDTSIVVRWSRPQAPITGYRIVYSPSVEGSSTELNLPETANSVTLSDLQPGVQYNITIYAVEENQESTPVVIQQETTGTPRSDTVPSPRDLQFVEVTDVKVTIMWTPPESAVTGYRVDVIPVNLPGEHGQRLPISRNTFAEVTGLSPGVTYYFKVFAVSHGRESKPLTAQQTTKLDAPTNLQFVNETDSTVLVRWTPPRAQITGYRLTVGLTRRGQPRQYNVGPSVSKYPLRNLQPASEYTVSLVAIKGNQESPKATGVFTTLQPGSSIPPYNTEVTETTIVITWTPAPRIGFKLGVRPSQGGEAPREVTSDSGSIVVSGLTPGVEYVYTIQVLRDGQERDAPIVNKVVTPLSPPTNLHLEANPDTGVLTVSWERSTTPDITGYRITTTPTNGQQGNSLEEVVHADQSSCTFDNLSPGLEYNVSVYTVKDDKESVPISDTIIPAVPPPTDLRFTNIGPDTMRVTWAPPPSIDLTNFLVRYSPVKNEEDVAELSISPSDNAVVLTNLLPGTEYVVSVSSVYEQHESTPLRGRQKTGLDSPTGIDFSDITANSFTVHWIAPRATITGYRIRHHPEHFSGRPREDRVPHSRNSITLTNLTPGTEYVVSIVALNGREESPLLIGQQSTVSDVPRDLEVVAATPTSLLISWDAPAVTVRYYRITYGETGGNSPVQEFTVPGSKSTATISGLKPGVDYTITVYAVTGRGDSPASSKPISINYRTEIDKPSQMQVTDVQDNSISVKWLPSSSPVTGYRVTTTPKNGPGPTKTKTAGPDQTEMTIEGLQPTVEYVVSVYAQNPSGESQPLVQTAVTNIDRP

Binder	IC50 [1]	inhibition of adhesion of α4β1+/α5β1+ Jurkat T-cells to coated Fibronectin cell binding fragment [2]	inhibition of adhesion of α4β1+/α5β1+ Jurkat T-cells to coated VCAM (VCAM (Panvera))	IC50 [3]
B1	0.013 µg/mL	> 100 fold	> 100 fold	–
B2	0.049 µg/mL	–	–	–
B3	–	> 100 fold	> 100 fold	< 0.1 µg/mL
B4	–	> 100 fold	> 100 fold	–
B5	0.033 µg/mL	–	–	–
B6	0.077 µg/mL	–	–	–
B7	–	> 100 fold	> 100 fold	–
B8	–	> 100 fold	> 100 fold	–
B9	0.013 µg/mL	> 100 fold	> 100 fold	–
B10	0.037 µg/mL	–	–	–
B11	0.018 µg/mL	> 100 fold	> 100 fold	–
B12	0.058 µg/mL	–	–	–
B13	–	> 100 fold	> 100 fold	–
B14	–	> 100 fold	> 100 fold	–
B15	–	> 100 fold	> 100 fold	–

Reference: US20070166308A1 (Amgen, published 2007)
